The values that follow come from patent publication US20210253720A1 (KEROS THERAPEUTICS, published 2021).

The term Kd denotes a measure of binding affinity in units of concentration. Read a high Kd as lower affinity. A word on the koff: it is the rate constant with which the complex falls apart. Lower therefore signals slow dissociation.

Experiment [1] concerns the target T1, ALK2-FC (UniProt Q04771 21-123, limits assumed).
T1 construct: Only the embodiments speak of 'human ALK2'; not shown: Fc part
T1 sequence (looked up): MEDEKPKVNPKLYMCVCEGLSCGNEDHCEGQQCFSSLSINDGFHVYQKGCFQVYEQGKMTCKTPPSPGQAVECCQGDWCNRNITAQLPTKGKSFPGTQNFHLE
The experiment in a line: BLI, ForteBio Octet RED384; monovalent fAB-FH against ALK2-FC. For orientation: BLI is a label-free optical method that tracks binding on a fibre tip over time.

For experiment [2], the target named is ALK2 on C2C12-BRE-Luciferase cells.
Sequence of ALK2 on C2C12-BRE-Luciferase cells (P37172 whole entry): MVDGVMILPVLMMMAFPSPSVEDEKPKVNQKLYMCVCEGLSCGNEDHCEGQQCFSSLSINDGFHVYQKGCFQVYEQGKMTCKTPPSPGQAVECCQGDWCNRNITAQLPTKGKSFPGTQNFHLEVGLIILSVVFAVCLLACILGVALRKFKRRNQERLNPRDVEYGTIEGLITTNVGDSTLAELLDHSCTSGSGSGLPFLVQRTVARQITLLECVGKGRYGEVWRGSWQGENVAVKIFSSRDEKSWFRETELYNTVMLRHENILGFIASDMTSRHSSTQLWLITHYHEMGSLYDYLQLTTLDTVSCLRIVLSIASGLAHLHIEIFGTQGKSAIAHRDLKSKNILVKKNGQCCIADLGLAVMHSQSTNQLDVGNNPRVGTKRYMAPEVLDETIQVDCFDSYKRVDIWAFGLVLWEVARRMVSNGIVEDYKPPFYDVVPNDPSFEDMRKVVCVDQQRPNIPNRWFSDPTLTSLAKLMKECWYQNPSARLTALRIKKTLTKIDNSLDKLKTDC
For experiment [3] the target is unchanged. This is another data set of the same source.
For experiment [4], the target named is T1, ALK2-FC. As to the kind of experiment: BLI, ForteBio Octet; fAB against ALK2-FC.
Experiment [5] concerns the target T1, ALK2-FC. As to the kind of experiment: BLI, ForteBio Octet; fAB against ALK2-FC; fAB, ForteBio Octet against ALK2-FC.

B1: Antibody 4, monovalent fAB in fAB-FH format (Fab, V domains shown)
VH: QVQLVQSGAEVKKPGSSVKVSCKASGGTFSSYAIHWVRQAPGQGLEWMGRIIPDFGTANYAQKFQGRVTITADESTSTAYMELSSLRSEDTAVYYCARGPTQAIHYFAYWGQGTLVTVSS
VL: DIELTQPPSVSVSPGQTASITCSGDNLRKYSAHWYQQKPGQAPVLVIYYDNKRPSGIPERFSGSNSGNTATLTISGTQAEDEADYYCQVYASVHRMVFGGGTKLTVLG
notes: also called Anti-ALK2 fAB
Take B1: in the experiment with ALK2-FC [1], the affinity, expressed as Kd, was 1.8 nM and the dissociation rate constant (koff) was 0.000759 s⁻¹. In experiment [2], this molecule had an IC50 (3 Param fit), inhibition of BMP6 (40 ng/mL)-induced SMAD1 (BRE) luciferase signal in C2C12 cells, ng/mL is the unit of the x axis of 465 ng/mL and an IC50 (4 Param fit), inhibition of BMP6 (40 ng/mL)-induced SMAD1 (BRE) luciferase signal in C2C12 cells, ng/mL is the unit of the x axis of 462 ng/mL.

B2: Antibody 6, monovalent fAB in fAB-FH format (Fab, V domains shown)
VH: EVQLLESGGGLVQPGGSLRLSCAASGFTFGRFVMHWVRQAPGKGLEWVSVIGYSGSSTYYADSVKGRFTISRDNSKNTLYLQMNSLRAEDTAVYYCAREPGYYYPSGYYRGPGYWMDVWGQGTLVTVSS
VL: DIQMTQSPSSLSASVGDRVTITCRASQGISGNWLTWYQQKPGKAPKLLIYDASNLQSGVPSRFSGSGSGTDFTLTISSLQPEDFATYYCHQSYRGPMTFGQGTKVEIKR
notes: also called Anti-ALK2 fAB
For the molecule B2, in the experiment with ALK2-FC [1], the equilibrium dissociation constant (Kd) was found to be 2.9 nM and the off-rate (koff) worked out at 0.00349 s⁻¹. The molecule further registered an IC50, inhibition of BMP6 (40 ng/mL)-induced SMAD1 (BRE) luciferase signal in C2C12 cells; fit type not given in experiment [3] of 1.16 µg/mL.

B3: Antibody 5, monovalent fAB in fAB-FH format (Fab, V domains shown)
VH: EVQLLESGGGLVQPGGSLRLSCAASGFTFSSAAMHWVRQAPGKGLEWVSVISSDGGSTYYADSVKGRFTISRDNSKNTLYLQMNSLRAEDTAVYYCARAGFILGSLGVAWMDVWGQGTLVTVSS
VL: DIELTQPPSVSVSPGQTASITCSGDSLGSKSVHWYQQKPGQAPVLVIYRDSKRPSGIPERFSGSNSGNTATLTISGTQAEDEADYYCQTYDWSHFGWVFGGGTKLTVLG
Turning to B3, in experiment [2], the IC50 (3 Param fit), inhibition of BMP6 (40 ng/mL)-induced SMAD1 (BRE) luciferase signal in C2C12 cells, ng/mL is the unit of the x axis is 710 ng/mL and the IC50 (4 Param fit), inhibition of BMP6 (40 ng/mL)-induced SMAD1 (BRE) luciferase signal in C2C12 cells, ng/mL is the unit of the x axis came to 754 ng/mL.

B4: Antibody 3, monovalent fAB in fAB-FH format (Fab, V domains shown)
VH: EVQLVESGGGLVKPGGSLRLSCAASGFTFNSSAMSWVRQAPGKGLEWVGRIKSKRDGYTTDYAAPVKGRFTISRDDSKNTLYLQMNSLKTEDTAVYYCARDYGGLKFDYWGQGTLVTVSS
VL: DIELTQPPSVSVSPGQTASITCSGDNIGTKYAYWYQQKPGQAPVLVIYGDSDRPSGIPERFSGSNSGNTATLTISGTQAEDEADYYCYSADAQQMKAVFGGGTKLTVLG
notes: also called Anti-ALK2 fAB
In the experiment with ALK2-FC [1], B4 showed a Kd of 4.4 nM and an off-rate (koff) of 0.00149 s⁻¹. In addition, in experiment [2], the IC50 (3 Param fit), inhibition of BMP6 (40 ng/mL)-induced SMAD1 (BRE) luciferase signal in C2C12 cells, ng/mL is the unit of the x axis was determined as 1460 ng/mL and the IC50 (4 Param fit), inhibition of BMP6 (40 ng/mL)-induced SMAD1 (BRE) luciferase signal in C2C12 cells, ng/mL is the unit of the x axis was 1490 ng/mL. The molecule further displayed an equilibrium dissociation constant (Kd) in the experiment with ALK2-FC [4] of 4.4 nM.

B5: Antibody 1, monovalent fAB in fAB-FH format (Fab, V domains shown)
VH: QVQLVQSGAEVKKPGSSVKVSCKASGGTFSSYGVSWVRQAPGQGLEWMGGIIPHFGIANYAQKFQGRVTITADESTSTAYMELSSLRSEDTAVYYCAREIGSLDIWGQGTLVTVSS
VL: DIVLTQPPSVSGAPGQRVTISCSGSSSNIGSNYVSWYQQLPGTAPKVLIYKNNHRPSGVPDRFSGSKSGTSASLAITGLQAEDEADYYCASWDHSDRFYVFGGGTKLTVLG
notes: also called Anti-ALK2 fAB
In the experiment with ALK2-FC [1], B5 returned a Kd of 4 nM and an off-rate (koff) of 0.00172 s⁻¹. The molecule further had a Kd in the experiment with ALK2-FC [5] of 4 nM. In experiment [2], this molecule registered an IC50 (3 Param fit), inhibition of BMP6 (40 ng/mL)-induced SMAD1 (BRE) luciferase signal in C2C12 cells, ng/mL is the unit of the x axis of 1750 ng/mL and an IC50 (4 Param fit), inhibition of BMP6 (40 ng/mL)-induced SMAD1 (BRE) luciferase signal in C2C12 cells, ng/mL is the unit of the x axis of 1830 ng/mL.

B6: Antibody 8, monovalent fAB in fAB-FH format (Fab, V domains shown)
VH: EVQLLESGGGLVQPGGSLRLSCAASGFTFSDYAMHWVRQAPGKGLEWVSSIFYSGSNTYYADSVKGRFTISRDNSKNTLYLQMNSLRAEDTAVYYCARPKSYASGPFAYWGQGTLVTVSS
VL: DIELTQPPSVSVSPGQTASITCSGDALRYYIAHWYQQKPGQAPVLVIYYNNNRPSGIPERFSGSNSGNTATLTISGTQAEDEADYYCQSYGPGSVVFGGGTKLTVLG
notes: also called Anti-ALK2 fAB
In the experiment with ALK2-FC [1], B6 registered a Kd of 6.3 nM and an off-rate constant (koff) of 0.00576 s⁻¹. In experiment [3], this molecule displayed an IC50, inhibition of BMP6 (40 ng/mL)-induced SMAD1 (BRE) luciferase signal in C2C12 cells; fit type not given of 0.367 µg/mL.

B7: Antibody 9, monovalent fAB in fAB-FH format (Fab, V domains shown)
VH: QVQLVQSGAEVKKPGSSVKVSCKASGGTFSTHAISWVRQAPGQGLEWMGLIQPRFGTANYAQKFQGRVTITADESTSTAYMELSSLRSEDTAVYYCARDYYGGMAYWGQGTLVTVSS
VL: DIVLTQPPSVSGAPGQRVTISCSGSSSNIGQNYVSWYQQLPGTAPKLLIYDNSKRPSGVPDRFSGSKSGTSASLAITGLQAEDEADYYCSSWDLLSKSRVFGGGTKLTVLG
notes: also called Anti-ALK2 fAB
In the experiment with ALK2-FC [1], B7 came in with an equilibrium dissociation constant (Kd) of 14 nM and a koff of 0.0149 s⁻¹. This molecule also had an IC50, inhibition of BMP6 (40 ng/mL)-induced SMAD1 (BRE) luciferase signal in C2C12 cells; fit type not given in experiment [3] of 1.27 µg/mL.

B8: Antibody 2, monovalent fAB in fAB-FH format (Fab, V domains shown)
VH: EVQLVESGGGLVKPGGSLRLSCAASGFTFSSHAMSWVRQAPGKGLEWVGRIKSKADSGTTDYAAPVKGRFTISRDDSKNTLYLQMNSLKTEDTAVYYCARDYGVAFAYWGQGTLVTVSS
VL: DIELTQPPSVSVSPGQTASITCSGDSIPSFFASWYQQKPGQAPVLVIYRDSNRPSGIPERFSGSNSGNTATLTISGTQAEDEADYYCYVTAPWKSIWVFGGGTKLTVLG
notes: also called Anti-ALK2 fAB
Consider B8, for which, in the experiment with ALK2-FC [1], the affinity, expressed as Kd, was 0.7 nM and the koff amounted to 0.000357 s⁻¹. In experiment [2], this molecule displayed an IC50 (3 Param fit), inhibition of BMP6 (40 ng/mL)-induced SMAD1 (BRE) luciferase signal in C2C12 cells, ng/mL is the unit of the x axis of 145 ng/mL and an IC50 (4 Param fit), inhibition of BMP6 (40 ng/mL)-induced SMAD1 (BRE) luciferase signal in C2C12 cells, ng/mL is the unit of the x axis of 221 ng/mL. In addition, in the experiment with ALK2-FC [4], the Kd worked out at 0.7 nM.
